According to publication PMC9462479 (2022):

B1: myc-tagged human ARMC5 (pcDNA3.1-myc-hARMC5), wild type [human] / FLAG-SREBF1(N), N-terminus of mouse SREBF1, from pcDNA3.1-FLAG-Srebf1(N) in HEK293T [mouse] (parent complex)
chain 1: MAAAKPTLTDSLSFCLAQLAAAAGEALGGEKDPATNETPLSRALLALRTRHIKAAGGIERFRARGGLRPLLALLRRAAAAGSAPSQAGPGSAPSSAASGASSPAPASGPAPSAVSSSSPTPPVRLRKTLDLALSILADCCTEGACRTEVRRLGGILPLVTILQCMKTDSIQNRTARALGNLAMEPESCGDIHCAGAVPLLVESLTACQDSQCLQSVVRALRNLADSPQHRLALAQQGAVRPLAELLATAPDAALTLALVRALLELSRGCSRACAEQLSLGGGLGPLVSLASHPKRAVREGTILILANLCAQGLIRPALGNAGGVEVLVDELRQRRDPNGASPTSQQPLVRAVCLLCREAINRARLRDAGGLDLLMGLLRDPRASAWHPRIVAALVGFLYDTGALGRLQALGLVPLLAGQLCGEAGEEEEEGREAASWDFPEERTPERAQGGSFRSLRSWLISEGYATGPDDISPDWSPEQCPPEPMEPASPAPTPTSLRAPRTQRTPGRSPAAAIEEPWGREGPALLLLSRFSQAPDPSGALVTGPALYGLLTYVTGAPGPPSPRALRILSRLTCNPACLEAFVRSYGAALLRAWLVLGVAPDDWPAPRARPTLHSRHRELGERLLQNLTVQAESPFGVGALTHLLLSGSPEDRVACALTLPFICRKPSLWRRLLLEQGGLRLLLAALTRPAPHPLFLFFAADSLSCLQDLVSPTVSPAVPQAVPMDLDSPSPCLYEPLLGPAPVPAPDLHFLLDSGLQLPAQRAASATASPFFRALLSGSFAEAQMDLVPLRGLSPGAAWPVLHHLHGCRGCGAALGPVPPPGQPLLGSEAEEALEAAGRFLLPGLEEELEEAVGRIHLGPQGGPESVGEVFRLGRPRLAAHCARWTLGSEQCPRKRGLALVGLVEAAGEEAGPLTEALLAVVMGIELGARVPA
chain 2: DELAFGEAALEQTLAEMCELDTAVLNDIEDMLQLINNQDSDFPGLFDAPYAGGETGDTGPSSPGANSPESFSSASLASSLEAFLGGPKVTPAPLSPPPSAPAALKMYPSVSPFSPGPGIKEEPVPLTILQPAAPQPSPGTLLPPSFPAPPVQLSPAPVLGYSSLPSGFSGTLPGNTQQPPSSLPLAPAPGVLPTPALHTQVQSLASQQPLPASAAPRTNTVTSQVQQVPVVLQPHFIKADSLLLTAVKTDAGATVKTAGISTLAPGTAVQAGPLQTLVSGGTILATVPLVVDTDKLPIHRLAAGSKALGSAQSRGEKRTAHNAIEKRYRSSINDKIVELKDLVVGTEAKLNKSAVLRKAIDYIRFLQHSNQKLKQENLTLRSAHKSKSLKDLVSACGSGGGTDVSMEGMKPEVVETLTPPPSDAGSPSQSSPLSFGSRASSSGGSDSEPDSP

Variants of: B1
Experiment: co-immunoprecipitation (anti-FLAG IP) with western blot densitometry; HEK293T cells; n = 3; read off a plot

In order of rising response:
1. chain 1 R362L  ~0.075 A.U.
2. chain 1 R315W  ~0.12 A.U.
3. chain 1 L331P  ~0.12 A.U.
4. chain 1 R898W  ~0.3 A.U.
5. chain 1 L754P  ~0.31 A.U.
